In patent US20260139017A1, “COMPOSITIONS AND METHODS USING REELIN IN ALZHEIMER'S DISEASE” (The General Hospital Corporation, priority 2022, published 2026):

B1: Il2ss-flagMini-RELNFspCR50R5-6CtermH3447R (protein)
chain: MYRMQLLSCIALSLALVTNSGGDYKDDDDKTGGAAGYYPRFSPFFFLCTHHGELEGDGEQGEVLISLHIAGNPTYYVPGQEYHVTISTSTFFDGLLVTGLYTSTSVQASQSIGGSSAFGFGIMSDHQFGNQFMCSVVASHVSHLPTTNLSFIWIAPPAGTGCVNFMATATHRGQVIFKDALAQQLCEQGAPTDVTVHPHLAEIHSDSIILRDDFDSYHQLQLNPNIWVECNNCETGEQCGAIMHGNAVTFCEPYGPRELITTGLNTTTASVLQFSIGSGSCRFSYSDPSIIVLYAKNNSADWIQLEKIRAPSNVSTIIHILYLPEDAKGENVQFQWKQENLRVGEVYEACWALDNILIINGSRGGQTNATRFRLWQPYNNGKKEEIWIVDDFIIDGNNVNNPVMLLDTFDFGPREDNWFFYPGGNIGLYCPYSSKGAPEEDSAMVFVSNEVGEHSITTRDLNVNENTIIQFEINVGCSTDSSSADPVRLEFSRDFGATWHLLLPLCYHSSSHVSSLCSTEHHPSSTYYAGTMQGWRREVVHFGKLHLCGSVRFRWYQGFYPAGSQPVTWAIDNVYIGPQCEEMCNGQGSCINGTKCICDPGYSGPTCKISTKNPDFLKDDFEGQLESDRFLLMSGGKPSRKCGILSSGNNLFFNEDGLRMLMTRDLDLSHARFVQFFMRLGCGKGVPDPRSQPVLLQYSLNGGLSWSLLQEFLFSNSSNVGRYIALEIPLKARSGSTRLRWWQPSENGHFYSPWVIDQILIGGNISGNMVLEDDFTTLDSRKWLLHPGGTKMPVCGSTGDALVFIEKASTRYVVSTDVAVNEDSFLQIDFAVSCSVTDSCYAIELEYSVDLGLSWHPLVRDCLPTNVECSRYHLQRILVSDTFNKWTRITLPLPPYTRSQATRFRWHQPAPFDKQQTWAIDNVYIGDGCIDMCSGHGRCIQGNCVCDEQWGGLYCDDPETSLPTQLKDNFNRAPSSQNWLTVNGGKLSTVCGAVASGMALHFSGGCSRLLVTVDLNLTNAEFIQFYFMYGCLITPNNRNQGVLLEYSVNGGITWNLLMEIFYDQYSKPGFVNILLPPDAKEIATRFRWWQPRHDGLDQNDWAIDNVLISGSASTRKQNYMMNFSRQHGLRRFYNRRRRSLRRYP
B2: IL2ss-6xHis-hReelin R3-R6 CT-H3447R (protein)
chain: MYRMQLLSCIALSLALVTNSGGHHHHHHGGSRFSSTAPVLLQYSHDAGMSWFLVKEGCYPASAGKGCEGNSRELSEPTMYHTGDFEEWTRITIVIPRSLASSKTRFRWIQESSSQKNVPPFGLDGVYISEPCPSYCSGHGDCISGVCFCDLGYTAAQGTCVSNVPNHNEMFDRFEGKLSPLWYKITGAQVGTGCGTLNDGKSLYFNGPGKREARTVPLDTRNIRLVQFYIQIGSKTSGITCIKPRTRNEGLIVQYSNDNGILWHLLRELDFMSFLEPQIISIDLPQDAKTPATAFRWWQPQHGKHSAQWALDDVLIGMNDSSQTGFQDKFDGSIGGGTLDSRKWLLHPGGTKMPVCGSTGDALVFIEKASTRYVVSTDVAVNEDSFLQIDFAVSCSVTDSCYAIELEYSVDLGLSWHPLVRDCLPTNVECSRYHLQRILVSDTFNKWTRITLPLPPYTRSQATRFRWHQPAPFDKQQTWAIDNVYIGDGCIDMCSGHGRCIQGNCVCDEQWGGLYCDDPETSLPTQLKDNFNRAPSSQNWLTVNGGKLSTVCGAVASGMALHFSGGCSRLLVTVDLNLTNAEFIQFYFMYGCLITPNNRNQGVLLEYSVNGGITWNLLMEIFYDQYSTGGSGGSTRKQNYMMNFSRQHGLRRFYNRRRRSLRRYP

Legend:
pDAB1 (Tyr232) [1] = assay: HRECs treated 5 minutes with HEK 293T-derived mini-RELN media, pDAB1 western blot; assay type: cell-based, human; conditions: HEK 293T-derived media 1:1, 1:4, 1:14, 5 minutes
Method: The effect of in vitro treatment with RELN or miniRELN protein was also evaluated. HRECs were cultured in EBM-2 media enriched with EGM-2 Single Quots (Lonza) at 37° C. and 5% CO2 and experimentally tested at passage 7. 24 h prior experiment, cells were plated on a 6-well plate at 500,000 cells/mL. Two hours before the experiment, the cells were washed with PBS to remove residual growth media and then incubated with a starving media including EBM-2, 1% GlutaMax+0,2% Normicin. Treatments was conducted using media derived from HEK 293T cells transiently transfected for 24 h with different mini-RELN constructs in the presence of Lipofectamine 2000. HEK-derived Lipofectamine2000-media was used as negative control. HEK 293T-derived media was tested at different ratio 1:1, 1:4, and 1:14 (Transfected media:Starving media). Each treatment was incubated for 5 minutes and cells were subsequently harvested in lysis buffer was applied constituted of RIPA (Cell signaling), proteases inhibitors (cOmplete™, Mini, EDTA-free Protease Inhibitor Cocktail, Roche), phosphatases inhibitors (PhosSTOP, Roche), 1 μL of proteasome inhibitor MG-132 10 mM, 1% Triton X 100. The lysates were scraped and centrifugated at 15000 rpm for 10 minutes at 4° C. Total protein levels were quantified via BCA assay. […] We detected pDAB1 (Tyr232; 1:1000, rabbit, #3325 Cell signaling), and Beta actin (1:5000, mouse, #66009-1-Ig, Proteintech. Antibodies were diluted using Intercept® (TBS) Blocking Buffer and incubated overnight at 4C under gentle shaking. Prior secondary antibody incubation, membranes were washes 2 times using TBS-T for 10 minutes. As secondary antibodies we used IR Dye 800n CW Goat-anti-Rabbit (925-32211, Licor) and IR Dye 680 CW Goat-anti-Mouse (925-68070, Licor) both diluted 1:10000 in blocking buffer for 1 h at room temperature under gentle shaking. Membranes were washed three times with TBS-T prior IR detection using Odyssey imager. To quantify the results, each band was quantified using ImageJ and data expressed as pDAB1:βActin ratio normalized to the control. […]

pDAB1 (Tyr232) [2] = assay: HRECs treated 5 minutes with recombinant mini-RELN, pDAB1 western blot; assay type: cell-based, human; conditions: 5 minutes, 4 ug/mL recombinant protein
Method: For in vitro screening of constructs using recombinant mini-RELN on HRECs, the cells were cultured in EBM-2 media enriched with EGM-2 Single Quots (Lonza) at 37° C. and 5% CO2 and experimentally tested at passage 7. 24 h prior experiment, cells were plated on a 6-well plate at 500,000 cells/mL. Two hours before the experiment, the cells were washed with PBS to remove residual growth media and then incubated with a starving media including EBM-2, 1% GlutaMax+0.2% Normicin. Treatments was conducted using recombinant mini RELN constructs obtained from Innovagen and Recombinant Mouse Reelin Protein from R&D systems (3820-MR-025/CF). Each treatment was incubated for 5 minutes at 4 ug/mL concentration and cells were subsequently harvested in lysis buffer was applied constituted of RIPA (Cell signaling), proteases inhibitors (cOmplete™, Mini, EDTA-free Protease Inhibitor Cocktail, Roche), phosphatases inhibitors (PhosSTOP, Roche), 1 μL of proteasome inhibitor MG-132 10 mM, 1% Triton X 100. The lysates were scraped and centrifugated at 15000 rpm for 10 minutes at 4° C. Total protein levels were quantified via BCA assay. For Western Blotting, 3.5 ug protein homogenates were prepared under reducing and denaturing conditions using Laemmli buffer enriched with 10 mM DTT and 5 min boiling. Samples were electrophoretically separated in a 4-20% Gel at 90V and protein transferred to a PVDF membrane using iBlot™ 2 Dry Blotting System. The membrane was blocked using Intercept® (TBS) Blocking Buffer for 2 hours. We detected pDAB1 (Tyr232; 1:1000, rabbit, #3325 Cell signaling), and total protein staining (Licor). Antibodies were diluted using Intercept® (TBS) Blocking Buffer and incubated overnight at 4C under gentle shaking. Prior secondary antibody incubation, membranes were washed 2 times using TBS-T for 10 minutes. As secondary antibodies we used IR Dye 800n CW Goat-anti-Rabbit (925-32211, Licor) diluted 1:10000 in blocking buffer for 1 h at room temperature under gentle shaking. Membranes were washed three times with TBST-T prior IR detection using Odyssey imager. To quantify the results, each band was quantified using ImageJ and data expressed as pDABL:total protein ratio normalized to the control.

Row | Molecule | pDAB1 / Dab1 signaling activation (pDAB1 (Tyr232) [1]) | pDAB1 levels (pDAB1 (Tyr232) [2])
1 | B1 | more robust compared to controls and compared to 233A | –
2 | B2 | efficacy | increased pDAB1 levels
